B1: Isoform 1 of Aminoacylase-1 (Homo sapiens), Q03154-1 (parent)
chain: MTSKGPEEEHPSVTLFRQYLRIRTVQPKPDYGAAVAFFEETARQLGLGCQKVEVAPGYVVTVLTWPGTNPTLSSILLNSHTDVVPVFKEHWSHDPFEAFKDSEGYIYARGAQDMKCVSIQYLEAVRRLKVEGHRFPRTIHMTFVPDEEVGGHQGMELFVQRPEFHALRAGFALDEGIANPTDAFTVFYSERSPWWVRVTSTGRPGHASRFMEDTAAEKLHKVVNSILAFREKEWQRLQSNPHLKEGSVTSVNLTKLEGGVAYNVIPATMSASFDFRVAPDVDFKAFEEQLQSWCQAAGEGVTLEFAQKWMHPQVTPTDDSNPWWAAFSRVCKDMNLTLEPEIMPAATDNRYIRAVGVPALGFSPMNRTPVLLHDHDERLHEAVFLRGVDIYTRLLPALASVPALPSDS
partner: B1 chain
B2: Double-strand-break repair protein rad21 homolog (Homo sapiens), O60216 (parent)
chain: MFYAHFVLSKRGPLAKIWLAAHWDKKLTKAHVFECNLESSVESIISPKVKMALRTSGHLLLGVVRIYHRKAKYLLADCNEAFIKIKMAFRPGVVDLPEENREAAYNAITLPEEFHDFDQPLPDLDDIDVAQQFSLNQSRVEEITMREEVGNISILQENDFGDFGMDDREIMREGSAFEDDDMLVSTTTSNLLLESEQSTSNLNEKINHLEYEDQYKDDNFGEGNDGGILDDKLISNNDGGIFDDPPALSEAGVMLPEQPAHDDMDEDDNVSMGGPDSPDSVDPVEPMPTMTDQTTLVPNEEEAFALEPIDITVKETKAKRKRKLIVDSVKELDSKTIRAQLSDYSDIVTTLDLAPPTKKLMMWKETGGVEKLFSLPAQPLWNNRLLKLFTRCLTPLVPEDLRKRRKGGEADNLDEFLKEFENPEVPREDQQQQHQQRDVIDEPIIEEPSRLQESVMEASRTNIDESAMPPPPPQGVKRKAGQIDPEPVMPPQQVEQMEIPPVELPPEEPPNICQLIPELELLPEKEKEKEKEKEDDEEEEDEDASGGDQDQEERRWNKRTQQMLHGLQRALAKTGAESISLLELCRNTNRKQAAAKFYSFLVLKKQQAIELTQEEPYSDIIATPGPRFHII
B3: Spermatogenic leucine zipper protein 1 (Homo sapiens), Q9BXG8 (parent)
chain: MASSAKSAEMPTISKTVNPTPDPHQEYLDPRITIALFEIGSHSPSSWGSLPFLKNSSHQVTEQQTAQKFNNLLKEIKDILKNMAGFEEKITEAKELFEETNITEDVSAHKENIRGLDKINEMLSTNLPVSLAPEKEDNEKKQEMILETNITEDVSAHKENIRGLDKINEMLSTNLPVSLAPEKEDNEKKQQMIMENQNSENTAQVFARDLVNRLEEKKVLNETQQSQEKAKNRLNVQEETMKIRNNMEQLLQEAEHWSKQHTELSKLIKSYQKSQKDISETLGNNGVGFQTQPNNEVSAKHELEEQVKKLSHDTYSLQLMAALLENECQILQQRVEILKELHHQKQGTLQEKPIQINYKQDKKNQKPSEAKKVEMYKQNKQAMKGTFWKKDRSCRSLDVCLNKKACNTQFNIHVARKALRGKMRSASSLR
partner: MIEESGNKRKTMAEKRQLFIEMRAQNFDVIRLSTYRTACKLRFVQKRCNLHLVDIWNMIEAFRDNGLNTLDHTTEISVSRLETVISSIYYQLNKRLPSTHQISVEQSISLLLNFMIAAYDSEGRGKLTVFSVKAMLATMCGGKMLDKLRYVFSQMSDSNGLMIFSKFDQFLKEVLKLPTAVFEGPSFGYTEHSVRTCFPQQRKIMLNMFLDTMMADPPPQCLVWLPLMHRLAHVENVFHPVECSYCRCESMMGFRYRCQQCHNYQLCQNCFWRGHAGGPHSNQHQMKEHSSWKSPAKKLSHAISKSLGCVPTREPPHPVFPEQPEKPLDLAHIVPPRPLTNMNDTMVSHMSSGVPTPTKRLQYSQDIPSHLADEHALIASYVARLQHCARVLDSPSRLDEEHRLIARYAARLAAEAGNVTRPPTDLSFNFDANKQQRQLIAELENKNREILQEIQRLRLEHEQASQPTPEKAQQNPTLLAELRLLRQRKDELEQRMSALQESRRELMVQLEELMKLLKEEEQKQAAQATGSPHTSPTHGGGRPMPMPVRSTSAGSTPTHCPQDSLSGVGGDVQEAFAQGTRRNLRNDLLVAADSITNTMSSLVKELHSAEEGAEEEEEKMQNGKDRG
B4: Alpha-ketoglutarate-dependent dioxygenase alkB homolog 4 (Homo sapiens), Q9NXW9 (parent)
chain: MAAAAAETPEVLRECGCKGIRTCLICERQRGSDPPWELPPAKTYRFIYCSDTGWAVGTEESDFEGWAFPFPGVMLIEDFVTREEEAELVRLMDRDPWKLSQSGRRKQDYGPKVNFRKQKLKTEGFCGLPSFSREVVRRMGLYPGLEGFRPVEQCNLDYCPERGSAIDPHLDDAWLWGERLVSLNLLSPTVLSMCREAPGSLLLCSAPSAAPEALVDSVIAPSRSVLCQEVEVAIPLPARSLLVLTGAARHQWKHAIHRRHIEARRVCVTFRELSAEFGPGGRQQELGQELLRIALSFQGRPV
partner: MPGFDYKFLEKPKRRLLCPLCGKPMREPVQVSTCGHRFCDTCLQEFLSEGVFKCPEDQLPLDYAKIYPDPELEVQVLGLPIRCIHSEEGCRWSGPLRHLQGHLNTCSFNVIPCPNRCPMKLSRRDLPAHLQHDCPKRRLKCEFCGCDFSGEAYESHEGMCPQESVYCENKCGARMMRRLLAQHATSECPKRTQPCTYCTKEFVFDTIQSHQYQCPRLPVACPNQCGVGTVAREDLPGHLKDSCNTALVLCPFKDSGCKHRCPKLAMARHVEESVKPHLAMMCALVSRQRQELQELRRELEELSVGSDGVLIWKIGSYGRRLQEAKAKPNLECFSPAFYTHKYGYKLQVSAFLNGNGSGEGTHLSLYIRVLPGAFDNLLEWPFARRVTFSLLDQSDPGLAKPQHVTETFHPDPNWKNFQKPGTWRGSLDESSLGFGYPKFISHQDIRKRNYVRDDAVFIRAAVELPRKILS
B5: Protein unc-50 homolog (Homo sapiens), Q53HI1 (parent)
chain: MLPSTSVNSLVQGNGVLNSRDAARHTAGAKRYKYLRRLFRFRQMDFEFAAWQMLYLFTSPQRVYRNFHYRKQTKDQWARDDPAFLVLLSIWLCVSTIGFGFVLDMGFFETIKLLLWVVLIDCVGVGLLIATLMWFISNKYLVKRQSRDYDVEWGYAFDVHLNAFYPLLVILHFIQLFFINHVILTDTFIGYLVGNTLWLVAVGYYIYVTFLGYSALPFLKNTVILLYPFAPLILLYGLSLALGWNFTHTLCSFYKYRVK
partner: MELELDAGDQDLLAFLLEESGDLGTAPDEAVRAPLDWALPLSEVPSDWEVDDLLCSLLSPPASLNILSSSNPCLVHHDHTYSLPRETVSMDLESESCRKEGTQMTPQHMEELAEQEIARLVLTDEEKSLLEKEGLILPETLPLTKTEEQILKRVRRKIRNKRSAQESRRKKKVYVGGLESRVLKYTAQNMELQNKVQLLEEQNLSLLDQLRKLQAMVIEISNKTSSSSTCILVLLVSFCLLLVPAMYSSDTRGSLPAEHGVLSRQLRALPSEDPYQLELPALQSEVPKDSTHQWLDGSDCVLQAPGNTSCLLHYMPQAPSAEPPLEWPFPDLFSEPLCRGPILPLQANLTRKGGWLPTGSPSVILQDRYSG

Variants of: B1
Details: with acy1_human ACY1, Q03154

effect of a mutation on the interaction	Variant
with no effect	E381D

Variants of: B2
Details: with fhl3_human FHL3, Q13643
fhl3_human FHL3, Q13643, sequence (Q13643 whole entry): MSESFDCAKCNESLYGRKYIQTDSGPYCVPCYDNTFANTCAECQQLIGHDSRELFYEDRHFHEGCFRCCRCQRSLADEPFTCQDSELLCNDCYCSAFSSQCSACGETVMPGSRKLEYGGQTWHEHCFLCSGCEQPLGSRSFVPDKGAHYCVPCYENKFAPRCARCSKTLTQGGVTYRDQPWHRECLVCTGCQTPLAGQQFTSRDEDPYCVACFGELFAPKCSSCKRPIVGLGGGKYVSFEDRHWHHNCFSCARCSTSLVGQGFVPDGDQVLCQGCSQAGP

effect of a mutation on the interaction	Variant
with no effect	M362L
with no effect	P443L
with no effect	D95H
with no effect	D414E
with no effect	I45V
with no effect	P426S

Variants of: B3
Details: with dtnb_human DTNB

effect of a mutation on the interaction	Variant
with no effect	E9K
with no effect	H301P

Variants of: B4
Details: with traf4_human TRAF4, Q9BUZ4

effect of a mutation on the interaction	Variant
disrupting interaction strength	R239C

Variants of: B5
Details: with creb3_human CREB3, O43889

effect of a mutation on the interaction	Variant
with no effect	S214G

From IntAct's records for PubMed 31515488
